Key:
[1] = molecular target: T1, 重组人PD-1蛋白 (recombinant human PD-1 protein) (human, UniProt Q15116 25-167, limits assumed); test: competition ELISA: human PD-1 coated, biotin-PD-L1-Fc 0.15 μg/ml as competitor
T1 construct: also called 重组蛋白PD-1

[2] = molecular target: T2, 重组蛋白PD-1-Fc (GenScript, Z03370): human PD-1 extracellular domain fused to human IgG1 Fc (human, UniProt Q15116 25-170); test: indirect ELISA, PD-1-Fc coated at 0.5 μg/ml
T2 construct: extracellular domain; Bought reagent (GenScript Z03370); also called PD-1-Fc重组蛋白; PD-1-Fc融合蛋白; not shown: human IgG1 Fc segment
T2 sequence (Q15116 25-170 limits assumed, one chain of several): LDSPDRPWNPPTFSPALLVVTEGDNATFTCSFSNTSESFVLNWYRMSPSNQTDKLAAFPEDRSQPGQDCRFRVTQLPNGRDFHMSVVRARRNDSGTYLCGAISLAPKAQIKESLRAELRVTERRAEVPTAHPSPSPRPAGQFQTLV

[3] = molecular target: human PD-1 expressed on cells (human, UniProt Q15116 25-288); test: cell-based or functional assay
human PD-1 expressed on cells, sequence (Q15116 25-288): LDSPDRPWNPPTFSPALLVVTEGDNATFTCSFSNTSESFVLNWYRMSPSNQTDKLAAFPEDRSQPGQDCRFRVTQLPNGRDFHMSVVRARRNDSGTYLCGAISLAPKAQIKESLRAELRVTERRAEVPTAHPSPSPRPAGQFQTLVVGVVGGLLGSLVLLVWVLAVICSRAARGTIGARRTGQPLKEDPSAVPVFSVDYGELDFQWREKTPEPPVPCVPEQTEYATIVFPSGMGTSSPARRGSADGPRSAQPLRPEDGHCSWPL

T1 sequence (Q15116 25-167 limits assumed): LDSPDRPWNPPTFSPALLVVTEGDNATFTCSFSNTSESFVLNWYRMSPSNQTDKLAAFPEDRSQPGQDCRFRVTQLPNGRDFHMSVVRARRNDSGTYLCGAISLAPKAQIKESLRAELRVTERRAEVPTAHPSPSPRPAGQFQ

IC50 [1] [µg/mL] | EC50 [2] [µg/mL] | IL-2 secretion, mixed lymphocyte reaction (CD4+ T cells + allogeneic dendritic cells), EC50 [3] [μg/ml] | RLU, NFAT-RE reporter effector cells (PD-1) co-cultured with PD-L1 target cells, EC50 [3] [µg/mL] | Binder
0.493 | 0.00681 | 0.064 | 1.13 | 1H10C4D4 (antibody, V domains shown, Detected with goat anti-mouse IgG) VH: EVKLVESGGGLVKPGGSLKLSCAASGFTFSSYDMSWVRQTPDKRLEWVATISGGGSYTYYPDSVKGRFTISRDNAKNNLYLQMSSLRSEDTALYYCGSPYGKYGMEYWGQGTSVTVSS VL: DIVMTQSHKFMSTSVGDRVSITCKASQDVGSVVAWYQQKPGQSPKLLIYWASTRHTGVPDRFTGSGSGTDFTLTISNVQSEDLADYFCQQYSSYPLTFGSGTKLELK
0.366 | 0.00872 | 1.12 | 1.42 | 154G5A5B7 (antibody, V domains shown) VH: QVQLKESGPGLVAPSQSLSITCTVSGFSLTVYGVNWVRQPPGKGLEWLGMIWGDGTTDYNSALKSRLIINKDNSKSQVFLKMNSLQTDDTARYYCARDDYGTFLYWGQGTLVTVSA VL: DIVMSQSPSSLAVSAGEKVTMSCKSSQSLLNSRTRKNYLAWYQQKPGQSPKLLIFWASTRESGVPDRFTGSVSGTDFTLTISSVQAEDLAVYYCKQSYTLRTFGGGTKLEIK
0.429 | 0.00465 | 0.929 | 1.01 | 2E5E4D11 (antibody, V domains shown, I took the two as the same clone (likely a misprint); also called 2E5E4E11) VH: EVKLVESGGVLVQPGGSLKLSCAASGFTFSSYTMSWVRQTPEKRLEWVAYISGGGGDTYYPDTVKGRFTISRDNAKNTLYLQMNSLKSGDTAMYYCARHGYDAACFAYWGQGTLVTVSA VL: DIVMTQSHKFMSTSVGDRVSFTCKASQDVNTAVAWYQQKPGQSPKLLIYWASTRHTGVPDRFTGSGSGTDYTLTISSVQAEDLALYYCQQHYSIPWTVGGGTKLEIK

— patent CN108203464A (GENSCRIPT NANJING CO LTD, dated 2018)
